In assay [1] the target is tau4R, the microtubule-binding region with R1-R4, labelled with Alexa Fluor 488 (human (by the printed UniProt entry)). Put plainly: fluorescence correlation spectroscopy (FCS); ~20 nM fluorescent protein (Alexa 488-labelled tau construct or eGFP) with unlabelled αS seeds at 20, 60 or 100 nM (monomer units); 20°C; 50 mM Na2HPO4, 50 mM NaCl pH 7.0; two-component diffusion fit, medians of type III curves.

Assay [2] addresses tau_(1N4R), full-length 1N4R tau, labelled with Alexa Fluor 488 (human (by the printed UniProt entry)). The assay is described as above.

Consider “αS_(1-100) seeds (sonicated fibrils of N-terminally acetylated αS_(1-100)) (from UniProt P37840 1-100) (complex)”, for which, in assay [1], the Q (brightness of bound tau relative to monomer tau) at 20 nM αS (1-100) seeds came to 1, the Q (brightness of bound tau relative to monomer tau) at 60 nM αS (1-100) seeds came out at 1, the Q (brightness of bound tau relative to monomer tau) at 100 nM αS (1-100) seeds came out at 1 and the median fB (fraction of tau with τD2) at 20 nM αS (1-100) seeds is 0.023. In assay [1], this substance registered a median fB (fraction of tau with τD2) at 60 nM αS (1-100) seeds of 0.11, a median fB (fraction of tau with τD2) at 100 nM αS (1-100) seeds of 0.11, a median type III τ (D2app) at 20 nM αS (1-100) seeds of 2.1 ms and a median type III τ (D2app) at 60 nM αS (1-100) seeds of 1.8 ms. Also, the median type III τ (D2app) at 100 nM αS (1-100) seeds in assay [1] was determined as 2.8 ms. Besides, in assay [2], the Q (brightness of bound tau relative to monomer tau) at 20 nM αS (1-100) seeds amounted to 2.3, the Q (brightness of bound tau relative to monomer tau) at 60 nM αS (1-100) seeds came to 2, the Q (brightness of bound tau relative to monomer tau) at 100 nM αS (1-100) seeds came out at 2.7 and the median fB (fraction of tau with τD2) at 20 nM αS (1-100) seeds amounted to 0.055. In assay [2], this substance gave a median fB (fraction of tau with τD2) at 60 nM αS (1-100) seeds of 0.053, a median fB (fraction of tau with τD2) at 100 nM αS (1-100) seeds of 0.16, a median type III τ (D2app) at 20 nM αS (1-100) seeds of 2.8 ms and a median type III τ (D2app) at 60 nM αS (1-100) seeds of 2.3 ms. The median type III τ (D2app) at 100 nM αS (1-100) seeds in assay [2] is 2.2 ms.

Source of the values: publication PMC11386428.
